# Assay results published in US20130045219A1 (UCB, published 2013).
# T1: CD154 expressed on D1.1 Jurkat cells (UniProt P29965 1-261, limits assumed)
# T1 sequence (looked up): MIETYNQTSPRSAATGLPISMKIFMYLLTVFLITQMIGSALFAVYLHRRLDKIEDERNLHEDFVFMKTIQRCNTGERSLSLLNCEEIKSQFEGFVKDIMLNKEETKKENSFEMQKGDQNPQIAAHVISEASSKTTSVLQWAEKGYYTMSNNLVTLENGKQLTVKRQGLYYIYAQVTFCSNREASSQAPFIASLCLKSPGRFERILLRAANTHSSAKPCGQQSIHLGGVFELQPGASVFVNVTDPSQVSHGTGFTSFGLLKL
# T2: soluble human CD154 protein (extracellular domain) (human, UniProt P29965 116-261)
# T2 construct: also called sCD154; recombinant extracellular domain of human CD154
# T2 sequence: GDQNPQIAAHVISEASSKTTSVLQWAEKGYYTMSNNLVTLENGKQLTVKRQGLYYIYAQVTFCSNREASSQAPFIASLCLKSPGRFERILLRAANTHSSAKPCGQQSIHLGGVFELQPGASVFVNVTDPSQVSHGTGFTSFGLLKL
# Assays:
# [1] = target: T1, CD154 expressed on D1.1 Jurkat cells; test: cell-based or functional assay
# [2] = target: T1, CD154 expressed on D1.1 Jurkat cells; test: flow cytometry: inhibition of the binding of hCD40-mFc-PE to CD154-expressing D1.1 Jurkat cells by serially diluted antibody (Example 5)
# Method: A flow cytometry-based assay was used to assess the binding of labeled CD40 to CD154-expressing D1.1 cells. D1.1 Jurkat cells (American Type Culture Collection) were maintained in RPMI 1640 medium (Gibco, 31870-025)) containing 10% (v/v) fetal calf serum (FCS), 2 mM glutamine (Invitrogen, 23030024), 1 mM sodium pyruvate (Invitrogen, 11360-039), 1% (v/v) D-(+)-glucose (Sigma, G8769) & 10 mM HEPES (Sigma, H0887). At time of assay, 100,000 D1.1 cells were incubated in 100 μL RPMI 1640 medium+10% FCS, in the presence or absence of serially diluted anti-CD154 antibody for 15 minutes at room temperature. 5 μL of a 1:75 dilution of hCD40-mFc-PE (Alexis Corp, ANC-504-050) was then added and incubated for a further 30 minutes at room temperature. After washing twice in phosphate-buffered saline (PBS) containing 1% (w/v) bovine serum albumin (BSA fraction V, Serologicals Proteins Inc, 81-068-5) and 0.02% (w/v) sodium azide (BDH, 103692K), cells were resuspended in 200 μL PBS/1% BSA/0.02% sodium azide and flow cytometry performed on a Becton Dickinson FACScan. The values for geometric mean fluorescence (FL2) were assessed in all cases.
# [3] = target: T2, soluble human CD154 protein …; test: Biacore (SPR): antibody or fragment captured on immobilized anti-human IgG (Fc- or Fab'-specific) F(ab')2, recombinant extracellular domain of human CD154 titrated over it (Example 4)
# Method: Catalogue Number: BR-1001-88, Biacore AB, Uppsala, Sweden. Buffer stored at 4° C. Immobilization buffer is Acetate 5.0 (being 10 mM sodium acetate pH 5.0). Catalogue number: BR-1003-51, Biacore AB, Uppsala, Sweden. Buffer stored at 4° C. Ligand capture: Affinipure F(ab′)₂ fragment goat anti-human IgG, Fab′ fragment specific (Catalogue number: 109-006-097) or Fc fragment specific (Catalogue number: 109-006-098), Jackson ImmunoResearch Inc (Pennsylvania, USA). Reagents stored at 4° C. […] Analyte: Recombinant extracellular domain of human CD154. Material was prepared at 2 mg/mL (40 μM) in phosphate-buffered saline, stored at 4° C., and diluted in HBE-EP running buffer for the assays. […] Regeneration Solution: 40 mM HCl prepared by dilution with distilled water from an 11.6 M stock solution (BDH, Poole, England. Catalogue number: 101254H). 5 mM NaOH prepared by dilution with distilled water from a 50 mM stock solution. Catalogue number: BR-1003-58, Biacore AB, Uppsala, Sweden. Assay Method: BIA (Biamolecular Interaction Analysis) was performed using a Biacore® 3000 (Biacore AB). Affinipure F(ab′)₂ fragment goat anti-human IgG, Fc- or Fab′-fragment specific (Jackson ImmunoResearch) were immobilized on a CM5 Sensor Chip via amine coupling chemistry to a capture level of ≈6000 response units (RUs). HBS-EP buffer (10 mM HEPES pH 7.4, 0.15 M NaCl, 3 mM EDTA, 0.005% Surfactant P20, Biacore AB) was used as the running buffer with a flow rate of 10 μl/min. Anti-CD154 antibodies or Fab fragments were used at concentrations such that, once captured by the immobilized anti-human IgG-Fc (or anti-human IgG Fab′) surface, gave a signal of ≈200 RUs. Human CD154 was titrated over the captured antibody, at various concentrations. 90 μL of CD154 was injected over the surface (association phase), followed by a 240 second dissociation phase, all at a flow rate of 30 μl/min. […] Background subtraction binding curves were analyzed using the BIAevaluation software (version 3.2) following standard procedures. Kinetic parameters were determined from the fitting algorithm.
# [4] = target: T1, CD154 expressed on D1.1 Jurkat cells; test: flow cytometry competition binding assay: serially diluted antibody against biotinylated 342 Fab on CD154-expressing D1.1 Jurkat cells, streptavidin-R-phycoerythrin detection (Example 6)
# Method: A flow cytometry-based assay was used to assess the binding of anti-CD154 antibody to CD154-expressing D1.1 cells. D1.1 Jurkat cells (American Type Culture Collection) were maintained in RPMI 1640 medium (Gibco, 31870-025) containing 10% (v/v) fetal calf serum (FCS), 2 mM glutamine (BioWhittaker, 17-605E) and […] (Mediatech, 30002107). […] The cells were washed three times in FACS buffer with centrifugation at 290×g for 3 minutes in between washes. A 1:500 dilution of streptavadin-R-phycoerythrin conjugate (Jackson Immunoresearch, 016-110-084) in […] FACS buffer was added and the cells were incubated for one hour at 4° C. The cells were washed once and fixed in PBS with 3% formaldehyde at room temperature for 10 minutes. The cells were resuspended in FACS buffer and run on a FacsCalibur (BD). The values for geometric mean fluorescence (FL2) were assessed in all cases.
binder,measurement,setting,value
"342 Di-Fab' (other, the two Fab' are cross-linked at the hinge; the linker is not described for this molecule) heavy chain (Fab'): EVQLVESGGGLVQPGGSLRLSCAVSGFSSTNYHVHWVRQAPGKGLEWMGVIWGDGDTSYNSVLKSRFTISRDTSKNTVYLQMNSLRAEDTAVYYCARQLTHYYVLAAWGQGTLVTVSSASTKGPSVFPLAPSSKSTSGGTAALGCLVKDYFPEPVTVSWNSGALTSGVHTFPAVLQSSGLYSLSSVVTVPSSSLGTQTYICNVNHKPSNTKVDKKVEPKSCDKTHTCAA light chain: DIQMTQSPSSLSASVGDRVTITCRASEDLYYNLAWYQRKPGKAPKLLIYDTYRLADGVPSRFSGSGSGTDYTLTISSLQPEDFASYYCQQYYKFPFTFGQGTKVEIKRTVAAPSVFIFPPSDEQLKSGTASVVCLLNNFYPREAKVQWKVDNALQSGNSQESVTEQDSKDSTYSLSSTLTLSKADYEKHKVYACEVTHQGLSSPVTKSFNRGEC",IC50 of inhibition of ICAM-1 (CD54) upregulation on CD40-expressing Ramos B cells co-cultured with CD154-expressing D1.1 Jurkat cells,[1],0.022 µg/mL
same,IC50,[2],0.009 µg/mL
"342 Tri-Fab'-PEG (other, the three Fab' are cross-linked and PEGylated; the chemistry is not described) heavy chain (Fab'): EVQLVESGGGLVQPGGSLRLSCAVSGFSSTNYHVHWVRQAPGKGLEWMGVIWGDGDTSYNSVLKSRFTISRDTSKNTVYLQMNSLRAEDTAVYYCARQLTHYYVLAAWGQGTLVTVSSASTKGPSVFPLAPSSKSTSGGTAALGCLVKDYFPEPVTVSWNSGALTSGVHTFPAVLQSSGLYSLSSVVTVPSSSLGTQTYICNVNHKPSNTKVDKKVEPKSCDKTHTCAA light chain: DIQMTQSPSSLSASVGDRVTITCRASEDLYYNLAWYQRKPGKAPKLLIYDTYRLADGVPSRFSGSGSGTDYTLTISSLQPEDFASYYCQQYYKFPFTFGQGTKVEIKRTVAAPSVFIFPPSDEQLKSGTASVVCLLNNFYPREAKVQWKVDNALQSGNSQESVTEQDSKDSTYSLSSTLTLSKADYEKHKVYACEVTHQGLSSPVTKSFNRGEC",IC50 of inhibition of ICAM-1 (CD54) upregulation on CD40-expressing Ramos B cells co-cultured with CD154-expressing D1.1 Jurkat cells,[1],0.036 µg/mL
same,IC50,[2],0.008 µg/mL
"342 Di-Fab'-PEG (other, the two Fab' are cross-linked and PEGylated; paragraph 96 describes DFM-PEG as two Fab' cross-linked with a PEGylated dimaleimide bridge) heavy chain (Fab'): EVQLVESGGGLVQPGGSLRLSCAVSGFSSTNYHVHWVRQAPGKGLEWMGVIWGDGDTSYNSVLKSRFTISRDTSKNTVYLQMNSLRAEDTAVYYCARQLTHYYVLAAWGQGTLVTVSSASTKGPSVFPLAPSSKSTSGGTAALGCLVKDYFPEPVTVSWNSGALTSGVHTFPAVLQSSGLYSLSSVVTVPSSSLGTQTYICNVNHKPSNTKVDKKVEPKSCDKTHTCAA light chain: DIQMTQSPSSLSASVGDRVTITCRASEDLYYNLAWYQRKPGKAPKLLIYDTYRLADGVPSRFSGSGSGTDYTLTISSLQPEDFASYYCQQYYKFPFTFGQGTKVEIKRTVAAPSVFIFPPSDEQLKSGTASVVCLLNNFYPREAKVQWKVDNALQSGNSQESVTEQDSKDSTYSLSSTLTLSKADYEKHKVYACEVTHQGLSSPVTKSFNRGEC",IC50 of inhibition of ICAM-1 (CD54) upregulation on CD40-expressing Ramos B cells co-cultured with CD154-expressing D1.1 Jurkat cells,[1],0.058 µg/mL
same,IC50,[2],0.032 µg/mL
same,Kd,[3],0.045 nM
same,IC50,[4],0.026 nM
"342 Tri-Fab' (other, the three Fab' are cross-linked at the hinge; the linker is not described) heavy chain (Fab'): EVQLVESGGGLVQPGGSLRLSCAVSGFSSTNYHVHWVRQAPGKGLEWMGVIWGDGDTSYNSVLKSRFTISRDTSKNTVYLQMNSLRAEDTAVYYCARQLTHYYVLAAWGQGTLVTVSSASTKGPSVFPLAPSSKSTSGGTAALGCLVKDYFPEPVTVSWNSGALTSGVHTFPAVLQSSGLYSLSSVVTVPSSSLGTQTYICNVNHKPSNTKVDKKVEPKSCDKTHTCAA light chain: DIQMTQSPSSLSASVGDRVTITCRASEDLYYNLAWYQRKPGKAPKLLIYDTYRLADGVPSRFSGSGSGTDYTLTISSLQPEDFASYYCQQYYKFPFTFGQGTKVEIKRTVAAPSVFIFPPSDEQLKSGTASVVCLLNNFYPREAKVQWKVDNALQSGNSQESVTEQDSKDSTYSLSSTLTLSKADYEKHKVYACEVTHQGLSSPVTKSFNRGEC",IC50 of inhibition of ICAM-1 (CD54) upregulation on CD40-expressing Ramos B cells co-cultured with CD154-expressing D1.1 Jurkat cells,[1],0.031 µg/mL
same,IC50,[2],0.009 µg/mL
"342 Fab'-PEG (Fab, V domains shown, PEG-maleimide on the single cysteine at the hinge) VH: EVQLVESGGGLVQPGGSLRLSCAVSGFSSTNYHVHWVRQAPGKGLEWMGVIWGDGDTSYNSVLKSRFTISRDTSKNTVYLQMNSLRAEDTAVYYCARQLTHYYVLAAWGQGTLVTVSS VL: DIQMTQSPSSLSASVGDRVTITCRASEDLYYNLAWYQRKPGKAPKLLIYDTYRLADGVPSRFSGSGSGTDYTLTISSLQPEDFASYYCQQYYKFPFTFGQGTKVEIKR",IC50 of inhibition of ICAM-1 (CD54) upregulation on CD40-expressing Ramos B cells co-cultured with CD154-expressing D1.1 Jurkat cells,[1],0.127 µg/mL
same,IC50,[2],0.035 µg/mL
same,Kd,[3],0.05 nM
same,IC50,[4],0.113 nM
"342 aglycosyl IgG4 (antibody, V domains shown, S228P and T299A (Kabat EU) are contained in SEQ ID NO: 72; not N-glycosylated, also called aglycosylated hu342; hu342 aglyP-huIgG4) VH: EVQLVESGGGLVQPGGSLRLSCAVSGFSSTNYHVHWVRQAPGKGLEWMGVIWGDGDTSYNSVLKSRFTISRDTSKNTVYLQMNSLRAEDTAVYYCARQLTHYYVLAAWGQGTLVTVSS VL: DIQMTQSPSSLSASVGDRVTITCRASEDLYYNLAWYQRKPGKAPKLLIYDTYRLADGVPSRFSGSGSGTDYTLTISSLQPEDFASYYCQQYYKFPFTFGQGTKVEIKR",IC50 of inhibition of ICAM-1 (CD54) upregulation on CD40-expressing Ramos B cells co-cultured with CD154-expressing D1.1 Jurkat cells,[1],0.048 µg/mL
same,IC50,[2],0.025 µg/mL
same,IC50,[4],0.035 nM
